Test results from patent US20250188131A1 (ICOSAVAX, published 2025).
Residue numbers refer to the chain shown, from its start.

Target: T1, I53-50B.4PosT1
T1 construct: also called second component; CompB
Assay: in vitro assembly with I53-50B, DLS
Procedure: Selected constructs were incubated with a second component, I53-50B, to form nanostructures. Dynamic Light Scattering (DLS) and negative-stain electron microscopy (nsEM) confirm assembly as nanostructure. A representative electron micrograph is shown in FIG. 5 (RSV/B.195, having the DS-Cav).
Assembly: Molar concentrations for RSV/B or RSV/A trimers fused to I53-50AΔcys and I53-50B (second component, using the sequence of I53-50B.4PosT1, SEQ ID NO:46) were determined using UV-Vis spectroscopy. Absorbance values at 280 nm were collected and divided by calculated molar extinction coefficients (ExPASy). The assembly reaction to produce RSVB antigen-bearing nanostructures was performed in vitro with the addition of components as follows: RSV F trimers fused to I53-50AΔcys were added to PCR tubes in 1.5× molar excess of I53-50B, then assembly buffer (20 mM Tris pH 7.4, 250 mM NaCl, 4% sucrose) was added to the sample in PCR tubes, and finally I53-50B was added to the reaction to bring the assemblies to a final concentration of 7.5 μM and a final volume of 47.5 μL. The reaction was incubated at ambient temperature for ˜30 minutes with gentle rocking prior to subsequent measurement by dynamic light scattering (DLS). All constructs were assembly competent under the conditions tested. Prior to nsEM analysis or immunogenicity studies, assembled nanostructures were further purified by size exclusion chromatography over a Superose 6 Increase 10/300 GL column into 20 mM Tris pH 7.4, 250 mM NaCl, 4% sucrose.

B1: RSV/B.099 (other)
chain: QNITEEFYQSTCSAVSRGYLSALRTGWYTSVITIELSNIKEVKCNGTDTKVKLIKQELDKYKNAVTELQLLMQNTPAVNNRARREAPQYMNYTINTTKNLNVSISKKRKRRFLGFLLGVGSAIASGIAVCKVLHLEGEVNKIKNALQLTNKAVVSLSNGVSVLTFRVLDLKNYINNQLLPMLNRQSCRISNIETVIEFQQKNSRLLEITREFSVNAGVTTPLSTYMLTNSELLSLINDMPITNDQKKLMSSNVQIVRQQSYSIMCIIKEEVLAYVVQLPIYGVIDTPCWKLHTSPLCTTNIKEGSNICLTRTDRGWYCDNAGSVSFFPQADTCKVQSNRVFCDTMNSLTLPSEVSLCNTDIFNSKYDCKIMTSKTDISSSVITSLGAIVSCYGKTKCTASNKNRGIIKTFSNGCDYVSNKGVDTVSVGNTLYYVNKLEGKNLYVKGEPIINYYDPLVFPSDRFDASISQVNEAINQSLAFIRRSDELLGSGGSGSGSGGSEKAAKAEEAARKMEELFKKHKIVAVLRANSVEEAIEKAVAVFAGGVHLIEITFTVPDADTVIKALSVLKEKGAIIGAGTVTSVEQARKAVESGAEFIVSPHLDEEISQFAKEKGVFYMPGVMTPTELVKAMKLGHTILKLFPGEVVGPQFVKAMKGPFPNVKFVPTGGVNLDNVAEWFKAGVLAVGVGSALVKGTPDEVREKAKAFVEKIRGATELEHHHHHH
  binding result: binds

B2: RSV/B.093 (other)
chain: B1 chain with V42T, T375D, D461A, F463W, D464A
  binding result: binds

B3: RSV/B.123 (other)
chain: B1 chain with T375D, D464A
  binding result: binds

B4: RSV/B.100 (other)
chain: B1 chain with T224P
  binding result: binds

B5: RSV/B.081 (other)
chain: B1 chain with V42T, T375D, D461A, D464A
  binding result: binds

B6: RSV/B.002 (other)
chain: B1 chain with V42T, R462E, A473K
notes: DS-Cav1 control; also called DS-Cav1 RSV/B.002
  binding result: binds

B7: RSV/B.171 (other)
chain: QNITEEFYQSTCSAVSRGYLSALRTGWYTSVITIELSNIKETKCNGTDTKVKLIKQELDKYKNAVTELQLLMQNTPAVNNRARREAPQYMNYTINTTKNLNVSISKKRKRRFLGFLLGVGSAIASGIAVCKVLHLEGEVNKIKNALQLTNKAVVSLSNGVSVLTFRVLDLKNYINNQLLPMLNRQSCRISNIETVIEFQQKNSRLLEITREFSVNAGVTTPLSTYMLTNSELLSLINDMPITNDQKKLMSSNVQIVRQQSYSIMCIIKEEVLAYVVQLPIYGVIDTPCWKLHTSPLCTTNIKEGSNICLTRTDRGWYCDNAGSVSFFPQADTCKVQSNRVFCDTMNSLTLPSEVSLCNTDIFNSKYDCKIMTSKDDISSSVITSLGAIVSCYGKTKCTASNKNRGIIKTFSNGCDYVSNKGVDTVSVGNTLYYVNKLEGKNLYVKGEPIINYYDPLVFPSDRFAASISQVNEAINQSREIIRAINIVRKIASEKGSGGSGSGSGGSEKAAKAEEAARKMEELFKKHKIVAVLRANSVEEAIEKAVAVFAGGVHLIEITFTVPDADTVIKALSVLKEKGAIIGAGTVTSVEQARKAVESGAEFIVSPHLDEEISQFAKEKGVFYMPGVMTPTELVKAMKLGHTILKLFPGEVVGPQFVKAMKGPFPNVKFVPTGGVNLDNVAEWFKAGVLAVGVGSALVKGTPDEVREKAKAFVEKIRGATELEHHHHHH
  binding result: binds

B8: RSV/B.178 (other)
chain: B7 chain with T224P, D461A
  binding result: binds

B9: RSV/B.160 (other)
chain: B7 chain with T224P, F463W
  binding result: binds

B10: RSV/B.147 (other)
chain: B7 chain with D375T, A464D
  binding result: binds

B11: RSV/B.189 (other)
chain: B7 chain with D461A, F463W
  binding result: binds

B12: RSV/B.195 (other)
chain: B7 chain with D375T, R462E, A464D, A473K
  binding result: binds

B13: RSV/B.172 (other)
chain: B7 chain with T224P
  binding result: binds

B14: RSV/B.148 (other)
chain: QNITEEFYQSTCSAVSRGYLSALRTGWYTSVITIELSNIKETKCNGTDTKVKLIKQELDKYKNAVTELQLLMQNTPAVNNRARREAPQYMNYTINTTKNLNVSISKKRKRRFLGFLLGVGSAIASGIAVCKVLHLEGEVNKIKNALQLTNKAVVSLSNGVSVLTFRVLDLKNYINNQLLPMLNRQSCRISNIETVIEFQQKNSRLLEITREFSVNAGVTTPLSPYMLTNSELLSLINDMPITNDQKKLMSSNVQIVRQQSYSIMCIIKEEVLAYVVQLPIYGVIDTPCWKLHTSPLCTTNIKEGSNICLTRTDRGWYCDNAGSVSFFPQADTCKVQSNRVFCDTMNSLTLPSEVSLCNTDIFNSKYDCKIMTSKTDISSSVITSLGAIVSCYGKTKCTASNKNRGIIKTFSNGCDYVSNKGVDTVSVGNTLYYVNKLEGKNLYVKGEPIINYYDPLVFPSDRFDASISQVNEAINQSREIIRAINIVRKIASEKGSGGSGSGSGGSEKAAKAEEAARKMEELFKKHKIVAVLRANSVEEAIEKAVAVFAGGVHLIEITFTVPDADTVIKALSVLKEKGAIIGAGTVTSVEQARKAVESGAEFIVSPHLDEEISQFAKEKGVFYMPGVMTPTELVKAMKLGHTILKLFPGEVVGPQFVKAMKGPFPNVKFVPTGGVNLDNVAEWFKAGVLAVGVGSALVKGTPDEVREKAKAFVEKIRGATELLEHHHHHH
  binding result: binds
